Experimental data published in US20070207955A1, “Novel polypeptide and process for producing the same, and collagenase inhibitor” (priority 2006, published 2007).

What was measured:
[1] = target: T1, collagenase (MMP-1, human rheumatoid synovial fibroblast) (Homo sapiens, UniProt P03956); assay: Test Example 2: collagenase inhibition, peak area of Dnp-Pro-Leu-Gly from decomposition of Dnp-Pro-Leu-Gly-Ile-Ala-Gly-Arg-NH2; assay type: biochemical; details: 0.025 mg polypeptide, 200 ng collagenase, 37° C. for one hour
T1 construct: collagenase (MMP-1, human rheumatoid synovial fibroblast); endogenous in cells; host or cells: human rheumatoid synovial fibroblast
T1 sequence (P03956 100-469): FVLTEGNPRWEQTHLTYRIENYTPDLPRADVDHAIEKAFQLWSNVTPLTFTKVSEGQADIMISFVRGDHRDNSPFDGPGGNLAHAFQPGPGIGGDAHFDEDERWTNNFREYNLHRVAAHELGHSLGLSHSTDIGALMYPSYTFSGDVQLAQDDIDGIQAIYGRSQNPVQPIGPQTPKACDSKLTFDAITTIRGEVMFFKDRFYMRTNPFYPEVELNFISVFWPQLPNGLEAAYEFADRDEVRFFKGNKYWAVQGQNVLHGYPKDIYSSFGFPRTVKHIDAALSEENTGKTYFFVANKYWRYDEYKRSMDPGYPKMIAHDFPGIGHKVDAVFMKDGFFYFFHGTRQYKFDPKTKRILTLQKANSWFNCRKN
Procedure: Each of the polypeptides (0.025 mg) obtained in the Examples 1 to 6 and Comparative Examples 1 and 2 was dissolved in 0.05 mL of a 50 mM Tris/HCl buffer (pH=7.5) containing 50 mM NaCl and 10 mM CaCl2. Further, to each of the solutions was added 200 ng of collagenase (MMP-1, human rheumatoid synovial fibroblast) which was dissolved in 0.05 mL of a 50 mM Tris/HCl buffer (pH=7.5) containing 50 mM NaCl and 10 mM CaCl2, and was added 0.01 mL of 1 mM DMSO solution of Dnp-Pro-Leu-Gly-Ile-Ala-Gly-Arg-NH2 (manufactured by Peptide Institute, Inc., Dnp represents 2,4-dinitrophenyl group). The resulting mixture was allowed to stand at 37° C. for one hour. Then, 0.2 mL of acetonitrile was added to the mixture, and the resultant was centrifuged at 10,000 rpm for 10 minutes.
Incidentally, as a control, a peak area of the peptide Dnp-Pro-Leu-Gly without addition of any polypeptide was measured. The peak area of the control was considered as 100, and the peak area detected by addition of each of the polypeptides obtained in Examples and Comparative Examples was calculated as a relative value to the control.

[2] = target: polypeptide of Example 2 (polycondensate of H-(Pro-Hyp-Gly)4-Pro-Gln-Gly-Ile-Ala-Gly-(Pro-Hyp-Gly)4-OH) (Artificial Sequence)
[3] = target: polypeptide of Example 3 (co-polycondensate of H-(Pro-Hyp-Gly)10-OH and H-(Pro-Hyp-Gly)4-Pro-Gln-Gly-Ile-Ala-Gly-(Pro-Hyp-Gly)4-OH, equimolar) (Artificial Sequence)
[4] = target: polypeptide of Comparative Example 1 (polycondensate of H-(Pro-Hyp-Gly)10-OH) (Artificial Sequence)
[5] = target: collagenase (MMP-1, human rheumatoid synovial fibroblast) (human) (UniProt P03956)

| Substance | relative value of the peak area of Dnp-Pro-Leu-Gly (control without polypeptide = 100) (relative to control = 100) [5] | other results |
| --- | --- | --- |
| H-(Pro-Hyp-Gly)10-OH [Comparative Example 2] | – | inhibition of the collagenase activity [1]: the inhibition of the collagenase activity was not recognized; relative value of the detected peak area of Dnp-Pro-Leu-Gly (control without polypeptide = 100) ([1]; pH 7.5): 96 |
| collagenase (MMP-1, human rheumatoid synovial fibroblast) (from UniProt P03956) (enzyme) | – | change in the molecular weight peak by gel-permeation chromatography after 24 hours at 37 C with collagenase (molecular weight) [2]: 540000; change in the molecular weight peak by gel-permeation chromatography after 24 hours at 37 C with collagenase (molecular weight) [3]: 400000; change in the molecular weight peak by gel-permeation chromatography after 24 hours at 37 C with collagenase (molecular weight) [4]: 540000 |
| polypeptide of Comparative Example 1 (polycondensate of H-(Pro-Hyp-Gly)10-OH) | 97 | – |
| polypeptide of Example 1, H-(Pro-Hyp-Gly)4-Pro-Gln-Gly-Ile-Ala-Gly-(Pro-Hyp-Gly)4-OH | 5 | – |
| polypeptide of Example 3 (co-polycondensate of H-(Pro-Hyp-Gly)10-OH and H-(Pro-Hyp-Gly)4-Pro-Gln-Gly-Ile-Ala-Gly-(Pro-Hyp-Gly)4-OH, equimolar) | 12 | – |
| polypeptide of Example 6 (polycondensate of H-(Pro-Hyp-Gly)4-Pro-Leu-Gly-Ile-Ala-Gly-(Pro-Hyp-Gly)4-OH) | 2 | – |

Further lines, with some results ahead:

| relative value of the peak area of Dnp-Pro-Leu-Gly (control without polypeptide = 100) (relative to control = 100) [5] | Substance | other results |
| --- | --- | --- |
| 96 | peptide of Comparative Example 2, H-(Pro-Hyp-Gly)10-OH | – |
| 3 | polypeptide of Example 2 (polycondensate of H-(Pro-Hyp-Gly)4-Pro-Gln-Gly-Ile-Ala-Gly-(Pro-Hyp-Gly)4-OH) | – |
| 22 | polypeptide of Example 4 (co-polycondensate of H-(Pro-Hyp-Gly)10-OH and H-(Pro-Hyp-Gly)4-Pro-Gln-Gly-Ile-Ala-Gly-(Pro-Hyp-Gly)4-OH, 0.00081 mmol to 0.00009 mmol) | – |
| 4 | polypeptide of Example 5, H-(Pro-Hyp-Gly)4-Pro-Leu-Gly-Ile-Ala-Gly-(Pro-Hyp-Gly)4-OH | – |
